Results as given in patent publication US20240368286A1 (SHANGHAI JMT BIO TECHNOLOGY, published 2024).

Columns and labels:
[1] = molecular target: T1, Human GFRAL (hGFRAL) on HEK293 reporter cells with human RET (human, UniProt Q6UXV0 19-394); experiment: cell-based or functional assay
T1 sequence (looked up): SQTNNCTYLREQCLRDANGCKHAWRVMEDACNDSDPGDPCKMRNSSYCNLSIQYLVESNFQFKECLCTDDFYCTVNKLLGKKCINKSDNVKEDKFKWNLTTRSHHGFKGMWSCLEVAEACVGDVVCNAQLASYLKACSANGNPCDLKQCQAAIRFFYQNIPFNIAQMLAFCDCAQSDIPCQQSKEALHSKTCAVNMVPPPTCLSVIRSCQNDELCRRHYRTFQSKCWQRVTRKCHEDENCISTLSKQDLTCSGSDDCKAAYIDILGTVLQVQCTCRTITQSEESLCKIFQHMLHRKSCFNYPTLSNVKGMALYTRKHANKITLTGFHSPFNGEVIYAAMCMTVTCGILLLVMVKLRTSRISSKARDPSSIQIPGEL

[2] = molecular target: T2, Mouse GFRAL (mGFRAL) on HEK293 reporter cells with mouse RET (mouse, UniProt Q6SJE0 20-393); experiment: cell-based or functional assay
T2 sequence (looked up): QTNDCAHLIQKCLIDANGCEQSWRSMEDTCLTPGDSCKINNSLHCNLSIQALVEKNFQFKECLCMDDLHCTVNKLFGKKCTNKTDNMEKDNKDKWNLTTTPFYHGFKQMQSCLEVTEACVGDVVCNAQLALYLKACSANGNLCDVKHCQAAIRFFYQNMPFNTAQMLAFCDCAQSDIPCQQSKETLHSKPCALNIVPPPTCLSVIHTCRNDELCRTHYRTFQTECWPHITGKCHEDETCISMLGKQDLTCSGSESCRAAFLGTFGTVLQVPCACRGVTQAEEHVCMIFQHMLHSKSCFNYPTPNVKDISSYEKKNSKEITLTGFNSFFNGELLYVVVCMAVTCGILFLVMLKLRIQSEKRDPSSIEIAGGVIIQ

[3] = molecular target: T3, Human GFRAL protein (Biacore analyte) (human, UniProt Q6UXV0 19-351, limits assumed); experiment: Biacore SPR, antibody captured via anti-human Fc on CM5, GFRAL injected, 25 C
T3 construct: also called hGFRAL
T3 sequence (looked up): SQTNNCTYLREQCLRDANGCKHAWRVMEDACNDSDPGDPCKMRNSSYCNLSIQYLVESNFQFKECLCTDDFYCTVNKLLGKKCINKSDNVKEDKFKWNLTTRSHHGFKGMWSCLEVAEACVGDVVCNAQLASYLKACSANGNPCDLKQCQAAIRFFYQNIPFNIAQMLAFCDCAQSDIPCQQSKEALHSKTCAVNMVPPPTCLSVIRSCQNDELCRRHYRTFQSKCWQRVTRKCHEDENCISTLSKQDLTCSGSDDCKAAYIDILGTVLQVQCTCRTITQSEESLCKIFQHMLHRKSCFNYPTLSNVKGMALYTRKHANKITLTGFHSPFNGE
Experimental: (§1) Binding affinity assays were performed for three antibody strains 168A7, 8E10 and 26D7 based on the Biacore affinity assay. The binding affinities of purified antibodies to human or mouse GFRAL were assessed by measuring the equilibrium dissociation constants (KD). The anti-human Fc antibody was immobilized in the flow cell of the CM5 chip according to the instructions of the amino-coupled kit (catalogue number: BR100050, Cytiva). Purified antibodies (˜300 RU) were captured on flow cells 2, 3 and 4 using flow cell 1 as a reference. Human or mouse GFRAL protein (in an HBS-EP buffer) was then injected at a flow rate of 30 μL/min and the binding kinetics were evaluated at 25° C. The results were as follows (FIGS. 1A-1C, Table 4)

[4] = molecular target: T4, Mouse GFRAL protein (Biacore analyte) (mouse, UniProt Q6SJE0 20-349, limits assumed); experiment: as above
T4 construct: also called mGFRAL
T4 sequence (looked up): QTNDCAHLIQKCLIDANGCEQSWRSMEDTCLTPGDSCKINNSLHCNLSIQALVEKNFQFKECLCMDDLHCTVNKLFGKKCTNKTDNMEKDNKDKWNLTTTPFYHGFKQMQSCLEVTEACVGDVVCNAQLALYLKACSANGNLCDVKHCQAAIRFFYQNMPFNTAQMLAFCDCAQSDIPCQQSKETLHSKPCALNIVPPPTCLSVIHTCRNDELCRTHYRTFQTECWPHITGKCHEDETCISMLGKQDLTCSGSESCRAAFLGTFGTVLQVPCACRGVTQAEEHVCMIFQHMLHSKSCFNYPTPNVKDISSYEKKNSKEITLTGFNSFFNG
Experimental: as §1

Human GFRAL-His protein = molecular target: T5, Human GFRAL-His protein (human, UniProt Q6UXV0 19-351); experiment: ELISA, antigen coated on plate, purified antibody titrated, HRP anti-mouse IgG detection
T5 construct: also called human GFRAL-His fusion protein; not shown: His tag
T5 sequence (looked up): T3 sequence (looked up)
Experimental: (§2) The ELISA assay had the following protocols. Human GFRAL-His protein, cynomolgus monkey GFRAL-His protein, or mouse GFRAL-Fc protein were coated on 96-well plates, and after blocking the wells with PBS/1% BSA solution, the hybridoma supernatant or purified antibodies were added to the reaction wells. After incubation for 1 hour at room temperature, HRP-labeled anti-mouse IgG (Fab region) antibody was added to the reaction wells to incubate for an additional hour at room temperature. After the substrate and stop solution were added successively, the OD₄₅₀ values were read. The OD₄₅₀ values were used to verify and assess the binding ability of the antibodies to the GFRAL proteins.

[5] = molecular target: Cynomolgus monkey GFRAL-His protein (cynomolgus monkey); experiment: as above
Experimental: as §2

Mouse GFRAL-Fc protein = molecular target: T6, Mouse GFRAL-Fc protein (mouse, UniProt Q6SJE0 20-349, limits assumed); experiment: as above
T6 construct: not shown: Fc
T6 sequence (looked up): T4 sequence (looked up)
Experimental: as §2

IC50 (nM), luciferase reporter gene assay, Human GFRAL/human RET [1]: 6.35 nM
IC50 (nM), luciferase reporter gene assay, Mouse GFRAL/mouse RET [2]: 0.76 nM
Kd [3]: 0.0153 nM
koff [3]: 9.37e-05 s⁻¹
koff [4]: 0.000293 s⁻¹
EC50 (Human GFRAL-His protein): 0.07 nM
EC50 [5]: 0.06 nM
EC50 (Mouse GFRAL-Fc protein): 0.15 nM
B1: 26D7 (antibody, V domains shown)
VH: QIQLVQSGPELKKPGETVKISCKVSGYTFTDYGMNWVKQTPGKDLKWVGWINTYTGEPTYADDFKDRFAFSLEASASTAYLQINNLKNEDTATYFCARRYGYDAGIDCWGQGTTLTVSS
VL: NIVLTQSPPSLAVSLGQRATISCRASESVDSYGNNLMHWYQQKPGQPPKLLIYLASYLESGVPARFSGSGSRTDFTLTIDPVEADDAATYYCQQNNEDPWTFGGGTKLEIK
notes: Murine hybridoma antibody, purified; also called m26D7; M26D7
